Values joined by “and” are separate entries in the source; they are usually repeats but may differ in a detail not shown here. Equal values may be shown once. Read-outs that look alike come from different tables or passages of the source.
Assays:
[1] = target: Sheep recombinant PrP (sheep); assay: direct ELISA, coated denatured rPrP 1 ng/assay
[2] = target: Human recombinant PrP (human); assay: direct ELISA, coated denatured rPrP 1 ng/assay
[3] = target: Bovine recombinant PrP (bovine); assay: direct ELISA, coated denatured rPrP 1 ng/assay
[4] = target: Deer recombinant PrP (deer); assay: direct ELISA, coated denatured rPrP 1 ng/assay
[5] = target: Mouse recombinant PrP (mouse); assay: direct ELISA, coated denatured rPrP 1 ng/assay
[6] = target: Sheep recombinant PrP (sheep); assay: direct ELISA, coated denatured rPrP 0.1 ng/assay
[7] = target: Human recombinant PrP (human); assay: direct ELISA, coated denatured rPrP 0.1 ng/assay
[8] = target: Bovine recombinant PrP (bovine); assay: direct ELISA, coated denatured rPrP 0.1 ng/assay
[9] = target: Deer recombinant PrP (deer); assay: direct ELISA, coated denatured rPrP 0.1 ng/assay
[10] = target: Mouse recombinant PrP (mouse); assay: direct ELISA, coated denatured rPrP 0.1 ng/assay
[11] = target: Mouse BH PrP^Sc (mouse); assay: direct ELISA, coated denatured mouse BH PrP^Sc 1 mg BH/assay
[12] = target: Mouse BH PrP^Sc (mouse); assay: direct ELISA, coated denatured mouse BH PrP^Sc 0.1 mg BH/assay
[13] = target: Human PrP^C (normal human plasma; normal human brain homogenate) (human); assay: sandwich ELISA, capture 3F4; normal human plasma, trypsin 0 ug/mL, not denatured
[14] = target: Syrian hamster PrP^C (normal SHa brain homogenate) (Syrian hamster); assay: sandwich ELISA, capture 3F4; normal SHa BH, trypsin 25 ug/mL, GdnHCl-denatured
[15] = target: Syrian hamster PrP^C (normal SHa brain homogenate) (Syrian hamster); assay: sandwich ELISA, capture 3F4; normal SHa BH, trypsin 50 ug/mL, NaOH-denatured
[16] = target: Syrian hamster PrP^Sc (scrapie-infected SHa brain homogenate) (Syrian hamster); assay: sandwich ELISA, capture 3F4; infectious SHa BH, PK 25 ug/mL, GdnHCl-denatured
[17] = target: Syrian hamster PrP^C (normal SHa brain homogenate) (Syrian hamster); assay: sandwich ELISA, capture 3F4; normal SHa BH, PK 25 ug/mL, GdnHCl-denatured
[18] = target: Syrian hamster PrP^C (normal SHa brain homogenate) (Syrian hamster); assay: sandwich ELISA, capture 3F4; normal SHa BH, trypsin 100 ug/mL, NaOH-denatured
[19] = target: Syrian hamster PrP^C (normal SHa brain homogenate) (Syrian hamster); assay: sandwich ELISA, capture POM17; normal SHa BH, trypsin 25 ug/mL, GdnHCl-denatured
[20] = target: Syrian hamster PrP^C (normal SHa brain homogenate) (Syrian hamster); assay: sandwich ELISA, capture 3F4; normal SHa BH, PK 100 ug/mL, NaOH-denatured
[21] = target: Syrian hamster PrP^C (normal SHa brain homogenate) (Syrian hamster); assay: sandwich ELISA, capture 3F4; normal SHa BH, PK 5 ug/mL, NaOH-denatured
[22] = target: Syrian hamster PrP^C (normal SHa brain homogenate) (Syrian hamster); assay: sandwich ELISA, capture 3F4; normal SHa BH, trypsin 50 ug/mL, not denatured
[23] = target: Syrian hamster PrP^C (normal SHa brain homogenate) (Syrian hamster); assay: sandwich ELISA, capture 3F4; normal SHa BH, PK 0 ug/mL, NaOH-denatured
[24] = target: Syrian hamster PrP^Sc (scrapie-infected SHa brain homogenate) (Syrian hamster); assay: sandwich ELISA, capture POM17; infectious SHa BH, PK 25 ug/mL, GdnHCl-denatured
[25] = target: Syrian hamster PrP^C (normal SHa brain homogenate) (Syrian hamster); assay: sandwich ELISA, capture 3F4; normal SHa BH, trypsin 5 ug/mL, NaOH-denatured
[26] = target: Syrian hamster PrP^C (normal SHa brain homogenate) (Syrian hamster); assay: sandwich ELISA, capture 3F4; normal SHa BH, PK 20 ug/mL, NaOH-denatured
[27] = target: Syrian hamster PrP^C (normal SHa brain homogenate) (Syrian hamster); assay: sandwich ELISA, capture 3F4; normal SHa BH, trypsin 25 ug/mL, not denatured
[28] = target: Syrian hamster PrP^Sc (scrapie-infected SHa brain homogenate) (Syrian hamster); assay: sandwich ELISA, capture 3F4; scrapie-infected SHa BH, PK 0 ug/mL, NaOH-denatured
[29] = target: Syrian hamster PrP^C (normal SHa brain homogenate) (Syrian hamster); assay: sandwich ELISA, capture 3F4; normal SHa BH, PK 10 ug/mL, NaOH-denatured
[30] = target: Syrian hamster PrP^C (normal SHa brain homogenate) (Syrian hamster); assay: sandwich ELISA, capture POM17; normal SHa BH, PK 25 ug/mL, GdnHCl-denatured
[31] = target: Syrian hamster PrP^C (normal SHa brain homogenate) (Syrian hamster); assay: sandwich ELISA, capture 3F4; normal SHa BH, PK 50 ug/mL, NaOH-denatured
[32] = target: Syrian hamster PrP^C (normal SHa brain homogenate) (Syrian hamster); assay: sandwich ELISA, capture 3F4; normal SHa BH, trypsin 10 ug/mL, NaOH-denatured
[33] = target: Syrian hamster PrP^C (normal SHa brain homogenate) (Syrian hamster); assay: sandwich ELISA, capture 3F4; normal SHa BH, trypsin 0 ug/mL, not denatured
[34] = target: Syrian hamster PrP^C (normal SHa brain homogenate) (Syrian hamster); assay: sandwich ELISA, capture 3F4; normal SHa BH, trypsin 20 ug/mL, NaOH-denatured
[35] = target: Syrian hamster PrP^C (normal SHa brain homogenate) (Syrian hamster); assay: sandwich ELISA, capture 3F4; normal SHa BH, trypsin 100 ug/mL, not denatured
[36] = target: Syrian hamster PrP^Sc (scrapie-infected SHa brain homogenate) (Syrian hamster)
[37] = target: Syrian hamster PrP^C (normal SHa brain homogenate) (Syrian hamster); assay: sandwich ELISA, capture 3F4; normal SHa BH, trypsin 0 ug/mL, NaOH-denatured
[38] = target: Syrian hamster PrP^Sc (scrapie-infected SHa brain homogenate) (Syrian hamster); assay: sandwich ELISA, capture 3F4; scrapie-infected SHa BH, PK 5 ug/mL, NaOH-denatured
[39] = target: Syrian hamster PrP^C (normal SHa brain homogenate) (Syrian hamster); assay: sandwich ELISA, capture POM2; normal SHa BH, PK 25 ug/mL, GdnHCl-denatured
[40] = target: Syrian hamster PrP^C (normal SHa brain homogenate) (Syrian hamster); assay: sandwich ELISA, capture POM2; normal SHa BH, trypsin 25 ug/mL, GdnHCl-denatured
[41] = target: Syrian hamster PrP^Sc (scrapie-infected SHa brain homogenate) (Syrian hamster); assay: sandwich ELISA, capture POM2; infectious SHa BH, PK 25 ug/mL, GdnHCl-denatured
[42] = target: Human PrP^C (normal human plasma; normal human brain homogenate) (human)
[43] = target: Human PrP^Sc of vCJD brain homogenate (vCJD MM, White strain) (human)
[44] = target: Human PrP^C (normal human plasma; normal human brain homogenate) (human); assay: sandwich ELISA, capture SAF-32; normal human BH, PK 25 ug/mL, un-denatured
[45] = target: Human PrP^Sc of vCJD brain homogenate (vCJD MM, White strain) (human); assay: sandwich ELISA, capture SAF-32; vCJD human BH, trypsin 25 ug/mL, un-denatured
[46] = target: Human PrP^Sc of vCJD brain homogenate (vCJD MM, White strain) (human); assay: sandwich ELISA, capture SAF-32; vCJD human BH, PK 25 ug/mL, un-denatured
[47] = target: Human PrP^Sc of vCJD brain homogenate (vCJD MM, White strain) (human); assay: sandwich ELISA, capture SAF-32; vCJD human BH, PK 25 ug/mL, 4M GdnHCl-denatured
[48] = target: Human PrP^C (normal human plasma; normal human brain homogenate) (human); assay: sandwich ELISA, capture SAF-32; normal human BH, trypsin 25 ug/mL, un-denatured

Mouse anti Prion (SAF-83) (antibody) was tested, and the RLU [1] was 115 RLU, the RLU [2] was 67 RLU and the RLU [3] was 50.8 RLU. The RLU [4] was 125 RLU, the RLU [5] was 2230 RLU and the RLU [6] was 98.1 RLU. The RLU [7] was 65.2 RLU, the RLU [8] was 45.7 RLU and the RLU [9] was 122 RLU. For the same substance, the RLU [10] was 181 RLU, the RLU [11] was 1730 RLU and the RLU [12] was 274 RLU.

In the case of POM2 antibody, the RLU [13] is reported as 195 RLU, the RLU [14] is reported as 21.4 RLU and the RLU [15] is reported as 3.4 RLU. For the same substance, the RLU [16] was 527 RLU, the RLU [17] was 10 RLU and the RLU [18] was 3.4 RLU. The RLU [19] was 70.6 RLU, the RLU [20] was 4.6 RLU and the RLU [21] was 84.1 RLU. For the same substance, the RLU [22] was 14.9 RLU, the RLU [23] was 1950 RLU and the RLU [24] was 596 RLU. For the same substance, the RLU [25] was 33.2 RLU, the RLU [26] was 37.1 RLU and the RLU [27] was 20.5 RLU. It also gave an RLU [28] of 2290 RLU, an RLU [29] of 50.2 RLU and an RLU [30] of 13.4 RLU. It also gave an RLU [31] of 15.8 RLU, an RLU [32] of 19.7 RLU and an RLU [33] of 2940 RLU. For the same substance, the RLU [34] was 8.5 RLU, the RLU [35] was 11.7 RLU and the RLU [36] was 2370 RLU and 2250 RLU. For the same substance, the RLU [37] was 2140 RLU and the RLU [38] was 2310 RLU.

For POM17 antibody, the RLU [14] was 2 RLU, the RLU [15] was 2 RLU and the RLU [16] was 200 RLU. It also gave an RLU [17] of 1.7 RLU, an RLU [18] of 2.6 RLU and an RLU [20] of 2.8 RLU. It also gave an RLU [21] of 11.4 RLU, an RLU [23] of 1680 RLU and an RLU [25] of 8.5 RLU. For the same substance, the RLU [26] was 5.5 RLU, the RLU [28] was 3860 RLU and the RLU [29] was 7.2 RLU. For the same substance, the RLU [39] was 1.8 RLU, the RLU [31] was 3.3 RLU and the RLU [32] was 4.5 RLU. The RLU [34] was 2.8 RLU, the RLU [40] was 14.6 RLU and the RLU [41] was 68.4 RLU. The RLU [36] was 254 RLU and 381 RLU, the RLU [37] was 1660 RLU and the RLU [38] was 2480 RLU.

mAb 6H4 (antibody) showed an RLU [1] of 160 RLU, an RLU [2] of 192 RLU and an RLU [3] of 691 RLU. The RLU [4] was 222 RLU, the RLU [5] was 332 RLU and the RLU [6] was 125 RLU. For the same substance, the RLU [7] was 72.7 RLU, the RLU [8] was 89.1 RLU and the RLU [9] was 92.4 RLU. For the same substance, the RLU [10] was 104 RLU, the RLU [11] was 610 RLU and the RLU [12] was 178 RLU.

With mAb to prion 7D9 (antibody) the RLU [1] was 993 RLU, the RLU [2] was 66.1 RLU and the RLU [3] was 961 RLU. The RLU [4] was 117 RLU, the RLU [5] was 769 RLU and the RLU [6] was 230 RLU. The RLU [7] was 81.4 RLU, the RLU [8] was 149 RLU and the RLU [9] was 121 RLU. It also gave an RLU [10] of 118 RLU, an RLU [11] of 614 RLU and an RLU [12] of 159 RLU.

With mAb to prion BDI115 (antibody) the RLU [1] was 104 RLU, the RLU [2] was 74.3 RLU and the RLU [3] was 177 RLU. For the same substance, the RLU [4] was 160 RLU, the RLU [5] was 86.7 RLU and the RLU [6] was 108 RLU. The RLU [7] was 48 RLU, the RLU [8] was 59.1 RLU and the RLU [9] was 105 RLU. For the same substance, the RLU [10] was 54.7 RLU, the RLU [11] was 116 RLU and the RLU [12] was 119 RLU.

For monoclonal antibody 3F4, the RLU [42] was 50.4 RLU and 18.1 RLU, the RLU [43] was 1650 RLU and the RLU [44] was 7.7 RLU. For the same substance, the RLU [45] was 15.1 RLU, the RLU [46] was 10 RLU and the RLU [47] was 226 RLU. The RLU [48] was 6.1 RLU.
